The numbers were not newly measured in publication PMC9313270, which cites them from elsewhere.

pKd: −log10 of the molar value.

For this data set, the target named is leptin (UniProt P41159). The data set is described as follows: not stated (listed for the qPCR aptasensor, 'This work'). Conditions: leptin binding buffer (composition not given); aptamer-adaptor annealing 15 min at 37 C, leptin incubation 30 min at 37 C, polymerase extension 10 min at 60 C …. A general note: Quantitative PCR measures a nucleic acid by following its amplification.
Chain of leptin (P41159 22-167): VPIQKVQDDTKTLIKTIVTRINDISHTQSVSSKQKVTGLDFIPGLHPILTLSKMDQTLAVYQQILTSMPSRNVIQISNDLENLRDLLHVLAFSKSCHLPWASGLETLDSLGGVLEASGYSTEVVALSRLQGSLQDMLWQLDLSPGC

As to “GTTAATGGGGGATCTCGCGGCCGTTCTTGTTGCTTATACA [leptin aptamer (Ashley and Li)]”, the negative-log Kd (pKd) is 5.82.

As usually defined, the pKd is the Kd on a negative log10 scale, so that one unit is a factor of ten.
